B1: Protein disulfide isomerase (YPDI) (protein)
chain: PEDSAVVKLATDSFNEYIQSHDLVLAEFFAPWCGHCKNMAPEYVKAAETLVEKNITLAQIDCTENQDLCMEHNIPGFPSLKIFKNSDVNNSIDYEGPRTAEAIVQFMIKQSQPAVAVVADLPAYLANETFVTPVIVQSGKIDADFNATFYSMANKHFNDYDFVSAENADDDFKLSIYLPSAMDEPVVYNGKKADIADADVFEKWLQVEALPYFGEIDGSVFAQYVESGLPLGYLFYNDEEELEEYKPLFTELAKKNRGLMNFVSIDARKFGRHAGNLNMKEQFPLFAIHDMTEDLKYGLPQLSEEAFDELSDKIVLESKAIESLVKDFLKGDASPIVKSQEIFENQDSSVFQLVGKNHDEIVNDPKKDVLVLYYAPWCGHCKRLAPTYQELADTYANATSDVLIAKLDHTENDVRGVVIEGYPTIVLYPGGKKSESVVYQGSRSLDSLFDFIKENGHFDVDGKALYEEAQEKAAEEADADAELADEEDAIHDEL
B2: Protein disulfide isomerase (HuPDI) (protein)
chain: not shown

Target: Green fluorescent protein (acid-denatured) (Aequorea victoria, UniProt P42212 = GFP)
Experiment: GFP refolding fluorescence kinetics (one-site fit, apparent Kd)

| Binder | Kd |
| --- | --- |
| B1 | 300 nM |
| B2 | 180 nM |

Reference: publication PMC3155373 (2011)
